Reference: patent US20130251724A1 (GlaxoSmithKline, published 2013)
Where “and” joins values, the source holds several entries; their conditions need not be identical. Equal values may be shown once. Read-outs that look alike come from different tables or passages of the source.

How the values were obtained:
Human OSM [1] = target: T1, Human OSM (human, UniProt P13725 26-221); assay: cell-based or functional assay
T1 sequence: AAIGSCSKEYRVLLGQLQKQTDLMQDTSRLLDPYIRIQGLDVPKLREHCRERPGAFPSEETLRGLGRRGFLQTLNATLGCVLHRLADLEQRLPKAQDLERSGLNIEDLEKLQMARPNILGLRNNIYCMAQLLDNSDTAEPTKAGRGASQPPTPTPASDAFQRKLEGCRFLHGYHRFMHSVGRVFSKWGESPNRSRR

[2] = target: T2, Endogenous human OSM (neutrophil-derived) (human, UniProt P13725 26-221, limits assumed); assay: gp130 ELISA with endogenous neutrophil-derived human OSM
T2 construct: Native OSM generated from GM-CSF stimulation of healthy human neutrophils; also called native OSM; endogenous OSM
T2 sequence: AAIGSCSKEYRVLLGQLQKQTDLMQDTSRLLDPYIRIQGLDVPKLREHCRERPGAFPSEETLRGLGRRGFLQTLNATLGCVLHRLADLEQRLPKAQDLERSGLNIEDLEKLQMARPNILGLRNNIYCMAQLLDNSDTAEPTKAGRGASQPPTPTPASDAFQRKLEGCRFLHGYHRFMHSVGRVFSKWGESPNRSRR

Human OSM [3] = target: T1, Human OSM; assay: cell-based or functional assay; remark: listed apart in the source
Human OSM [4] = target: T1, Human OSM; assay: BIAcore, purified antibody
Human OSM [5] = target: T1, Human OSM; assay: cell-based or functional assay; remark: listed apart in the source
Human OSM [6] = target: T1, Human OSM; assay: cell-based or functional assay; remark: listed apart in the source
Human OSM [7] = target: T1, Human OSM; assay: cell-based or functional assay; remark: listed apart in the source
[8] = target: T2, Endogenous human OSM …; assay: gp130 ELISA with endogenous neutrophil-derived human OSM; remark: listed apart in the source
Human OSM [9] = target: T1, Human OSM; assay: BIAcore kinetics, purified antibody
Cynomolgus OSM [10] = target: T3, Cynomolgus OSM (cynomolgus, UniProt A0A2K5VPC6 26-221); assay: BIAcore kinetics, purified antibody
T3 construct: also called Cyno OSM; cynomolgus macaque OSM
T3 sequence: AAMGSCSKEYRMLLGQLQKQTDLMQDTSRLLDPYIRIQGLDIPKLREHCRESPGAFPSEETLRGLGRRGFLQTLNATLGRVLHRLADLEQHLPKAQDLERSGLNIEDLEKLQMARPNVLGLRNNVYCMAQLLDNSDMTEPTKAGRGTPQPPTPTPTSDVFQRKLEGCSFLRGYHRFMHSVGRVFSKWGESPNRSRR

Human OSM [11] = target: T1, Human OSM; assay: cell-based or functional assay; remark: listed apart in the source
Cynomolgus OSM [12] = target: T3, Cynomolgus OSM; assay: cell-based or functional assay
Marmoset OSM [13] = target: Marmoset OSM (marmoset); assay: cell-based or functional assay
Human OSM [14] = target: T1, Human OSM; assay: cell-based or functional assay; remark: listed apart in the source
Cynomolgus OSM [15] = target: T3, Cynomolgus OSM; assay: cell-based or functional assay; remark: listed apart in the source
Human OSM [16] = target: T1, Human OSM; assay: BIAcore kinetics, transfection supernatant
Cynomolgus OSM [17] = target: T3, Cynomolgus OSM; assay: BIAcore kinetics, transfection supernatant
Human OSM [18] = target: T1, Human OSM; assay: cell-based or functional assay; remark: listed apart in the source
Human OSM [19] = target: T1, Human OSM; assay: cell-based or functional assay; remark: listed apart in the source
Rhesus OSM = target: T4, Rhesus OSM (rhesus macaque, UniProt F7GF43 26-221); assay: Kinexa solution phase affinity
T4 construct: also called rhesus macaque OSM
T4 sequence: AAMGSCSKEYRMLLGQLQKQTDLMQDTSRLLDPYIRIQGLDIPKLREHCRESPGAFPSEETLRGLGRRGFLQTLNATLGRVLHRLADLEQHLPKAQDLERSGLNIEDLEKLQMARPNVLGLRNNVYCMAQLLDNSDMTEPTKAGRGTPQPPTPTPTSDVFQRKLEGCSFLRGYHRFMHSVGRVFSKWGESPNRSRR
Description: (§1) Kinexa (Sapidyne Instruments 3200) solution phase affinity was used to determine the overall affinity of anti-OSM antibody H0(huCDRH1)L1 and Humanised 15E10 (an unrelated OSM antibody) to human, cynomolgus macaque, rhesus macaque and marmoset OSM (Table 15). Humanised 15E10 was added for comparison purposes.
(§2) OSM beads were prepared either by adsorption (polymethylmethacrylate beads-PMMA) or amine coupling (NHS-activated sepharose beads). The range of OSM molecules studied necessitated the generation of beads coated with different concentrations of OSM. For the solution phase portion of the assay, a fixed concentration of antibody was incubated with a broad range of OSM concentrations and allowed to reach equilibrium by incubation at r.t. for at least 2 h before analysis proceeded. The OSM beads were then used to determine the amount of free antibody present in the solution phase samples, by means of the free antibody binding to the OSM bead matrix then detected using an appropriate secondary antibody (either anti-human or anti-mouse depending on the construct being tested) labelled with a fluorescent dye. The binding curves where fitted using the Kinexa Pro analysis software inherent to the machine. Multiple runs using varying starting concentrations of antibody were then compiled and analysed using the n-curve analysis software to give a more accurate determination of affinity.

Marmoset OSM [20] = target: T5, Marmoset OSM (marmoset); assay: Kinexa solution phase affinity
T5 construct: also called Marm OSM
Description: as §1, §2

Human OSM [21] = target: T1, Human OSM; assay: Kinexa solution phase affinity
Description: as §1, §2

Cynomolgus OSM [22] = target: T3, Cynomolgus OSM; assay: Kinexa solution phase affinity
Description: as §1, §2

Human OSM [23] = target: T1, Human OSM; assay: cell-based or functional assay; remark: listed apart in the source

B1: Humanised 10G8 H0(IGHV3-23)L1 (antibody, human IgG1, kappa, V domains shown)
VH: EVQLVESGGGLVQPGGSLRLSCAASGFTFSSYAMSWVRQAPGKGLEWVATISDGGSFTYYLDNVRGRFTISRDNAKNSLYLQMNSLRAEDTAVYYCARDVGHTTFWYFDVWGRGTLVTVSS
VL: DIVMTQSPDSLAVSLGERATINCRASKSVSAAGYNFMHWYQQKPGQPPKVLIYYASNLESGVPDRFSGSGSGTDFTLTISSLQAEDVAVYYCLHSREFPFTFGGGTKVEIKR
notes: IgG1 kappa; also called H0(huCDRH1)L1; H0 (CDRH1 IGHV3_23) L1
Which “IC50 (read off the curve); IL-6 release from IPF human lung fibroblasts stimulated with 3 ng/ml OSM” value (Human OSM [1]) does the source give for B1 here?
Its value is about 0.01 µg/mL.

And the “fold increase in potency compared with 15E10h” value [2]?
The value was about 12 fold.

What about the “IC50 (read off the curve); MCP-1 release from normal human lung fibroblasts stimulated with 3 ng/ml OSM” value (Human OSM [3]) of the same binder?
The value was about 0.01 µg/mL.

And the “fold increased affinity compared with 15E10h” value (Human OSM [4])?
The value was 6.5 fold.

And the “IC50 (read off the curve); IL-6 release from HFLS-RA cells stimulated with 0.3 ng/ml human OSM” value (Human OSM [5])?
The value was about 0.006 nM.

What about the “IC50 (read off the curve); IL-6 release from HFLS-RA cells stimulated with 3 ng/ml human OSM” value (Human OSM [6]) of the same binder?
Its value is about 0.1 nM.

What about the “IC50 (read off the curve); MCP-1 release from IPF human lung fibroblasts stimulated with 3 ng/ml OSM” value (Human OSM [7]) of the same binder?
Its value is about 0.03 µg/mL.

What about the IC50 [8] of the same binder?
The IC50 was 0.0062 µg/mL and 0.041 nM.

And the Kd (Human OSM [9])?
Its Kd is 0.136 nM.

What about the koff (Human OSM [9]) of the same binder?
The koff was 9.65e-05 s⁻¹.

And the kon (Human OSM [9])?
The kon was 709000 M⁻¹ s⁻¹.

What about the Kd (Cynomolgus OSM [10]) of the same binder?
Its Kd is 0.199 nM.

What about the koff (Cynomolgus OSM [10]) of the same binder?
The koff was 8.39e-05 s⁻¹.

What about the kon (Cynomolgus OSM [10]) of the same binder?
The kon was 423000 M⁻¹ s⁻¹.

What about the “KB cell neutralisation assay, mean IC50” value (Human OSM [11]) of the same binder?
The value was 0.008 µg/ml and 53 pM.

What about the “KB cell neutralisation assay, mean IC50” value (Cynomolgus OSM [12]) of the same binder?
Its value is 0.007 µg/ml and 47 pM.

And the “KB cell neutralisation assay, mean IC50” value (Marmoset OSM [13])?
Its value is 0.0036 µg/ml and 24 pM.

And the “KB cell neutralisation assay, mean IC50” value (Human OSM [14])?
Its value is 0.003 µg/ml and 20 pM.

What about the “KB cell neutralisation assay, mean IC50” value (Cynomolgus OSM [15]) of the same binder?
Its value is 0.0041 µg/ml and 27 pM.

What about the Kd (Human OSM [16]) of the same binder?
The Kd was 0.437 nM.

What about the koff (Human OSM [16]) of the same binder?
Its koff is 0.000158 s⁻¹.

What about the kon (Human OSM [16]) of the same binder?
The kon was 361000 M⁻¹ s⁻¹.

And the Kd (Cynomolgus OSM [17])?
The Kd was 0.31 nM.

And the koff (Cynomolgus OSM [17])?
The koff was 0.000109 s⁻¹.

What about the kon (Cynomolgus OSM [17]) of the same binder?
Its kon is 352000 M⁻¹ s⁻¹.

What about the “IC50 (read off the curve); IL-6 release from normal human lung fibroblasts stimulated with 3 ng/ml OSM” value (Human OSM [18]) of the same binder?
The value was about 0.006 µg/mL.

What about the “IC50 (read off the curve); MCP-1 release from HFLS-RA cells stimulated with 3 ng/ml human OSM” value (Human OSM [19]) of the same binder?
Its value is about 0.1 nM.

What about the Kd (Rhesus OSM) of the same binder?
Its Kd is 0.122 nM.

What about the Kd (Marmoset OSM [20]) of the same binder?
Its Kd is 0.021 nM.

What about the Kd (Human OSM [21]) of the same binder?
Its Kd is 0.038 nM.

What about the Kd (Cynomolgus OSM [22]) of the same binder?
Its Kd is 0.053 nM.

What about the “IC50 (read off the curve); MCP-1 release from HFLS-RA cells stimulated with 0.3 ng/ml human OSM” value (Human OSM [23]) of the same binder?
Its value is about 0.005 nM.
